Experiment: yeast display, Sf9 membrane polyspecificity reagent, FACS + sequencing; frameworks hold sequencing errors
Method in brief: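 Synthetic nanobody libraries on Saccharomyces cerevisiae BJ5465 were galactose-induced for 36–48 hours, stained 1 hour at 4 °C with 10% biotinylated, detergent-solubilized Sf9 membrane reagent and enriched on streptavidin microbeads. FACS then separated cells into low and high (top ~1%) gates by anti-HA (expression) and streptavidin (reagent binding) fluorescence. Genes were colony-PCR amplified, MiSeq 2 × 250 sequenced and CDR-length filtered. A clone's polyreactivity label is that of its gate of origin.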

Row | Sequence | polyreactivity (PSR sort gate)
1 | QVQHVESGGGLVQAGGSLRLSCAASGRTFFANAMGWYRQAPGKERELVAAITSNTGSTYYADSVKGRFTISRDNAKNTVYLQMNSLKPEDTAVYYCAARGSPRKWTFHYYYWGQGTQVTVSS | high polyreactivity
2 | QVQHVESGGGLVQAGGSLRLSCAASGRTFFYNTMGWYRQAPGKERELVARITRGGSTYYADSVKGRFTISRDNAKNTVYLQMNSLKPEDTAVYYCAAGYWRGYLLYGFDYWGQGTQVTVSS | high polyreactivity
3 | QVQHVESGGGLVQAGGSLRLSCAASGRTFLKNAMGWYRHAPVKERELVAAITSGGSTNYADSVKGRFTISRDNAKNTVYIQMNSLKPEDTAVYYCNAPSYWYYPVLGSFLTFDYWGQGTQVTVSS | low polyreactivity
4 | QVQHVESGGGLVQAGGSLRLSCAASGRTFRKNAMGWYRQAPGKERELVAAITGSSGTTYYADSVKGRFTISRDNAKNTVYLQMNSLKPEDTAVYYCATTVGDPGRRYYYWGQGTQVTVSS | high polyreactivity
5 | QVQHVESGGGLVQAGGSLRLSCAASGRTFRNNAMGWYRQAPGKERELVAAITSGGSTYYADSVKGRFTISRDNAKNTVYLQMNSLKPEDTAVYYCAAVPEYYEYSPYDYWGQGTQVTVSS | low polyreactivity
6 | QVQHVESGGGLVQAGGSLRLSCAASGRTFRRYAMGWYRQAPGKERELVAVITTGSTYYADSVKGRFTISRDNAKNTVYLQMNSLKPEDTALYYCAADFYRATARYEMDYWGQGTQVTVSS | high polyreactivity
7 | QVQHVESGGGLVQAGGSLRLSCAASGRTFSYYTMGWYRQAPGKERELVARISNRGTNTYYADSVKGRFTISRDNAKYTVYLQMNSLKPEDYAVYYCAKYYYTSIVGYDSWGQGTQVTVSS | low polyreactivity
8 | QVQHVESGGGLVQAGGSLRLSCAASGRTFVTYAMGWYRQAPGKERELVAAISKRGSRTYYADSVKGRFTISRDNAKNTVYLQMNSLKPEDTAVYYCNADPYRTSYDYWGQGTQVTVSS | high polyreactivity
9 | QVQHVESGGGLVQAGGSLRLSCAASGRTFWINAMGWYRQARGKERELVAAITRGGRTYADSVKGRFTISRDNAKNSVYLQMNSLKPEDTAVYFCAADSYRLSGHHGYDFWGQGTQLTVSS | high polyreactivity
10 | QVQHVESGGGLVQAGGSLRLSCAASGRTFYSYAMGWYRQAPGKERELVAAINSGGTTYYADSVKGRFTISRDNAKNTVYLEINSLKPEDTAVYYCAAVSYLFLYQGYPIAYPMYYWGQGTQVTVSS | low polyreactivity
11 | QVQHVESGGGLVQAGGSLRLSCAASGRTFYSYAMGWYRQAPGKERELVAAISGRGGRTYYADSVKGRFTISRDNAKNTVYLQMNSLKPEDSAVYFCAKGGYAIRYYGFDYWGQGTQVTVSS | high polyreactivity
12 | QVQHVESGGGLVQAGGSLRLSCAASGRTLYRYAMGWSRQAPRKERELVAAIRSGGRTNYADSVKGRFTISRDNAKNTVYLQMNSLKPEDTAVYYCAARTLRYPSTFEYWGQGTQVTVSS | high polyreactivity
13 | QVQHVESGGGLVQAGGSLRLSCAASGSIFGRYAMGWYRPAPGKERELVAAITRSGVSTYYADSVTGRFTSARDNAKNTVDLQMNSLKPEDTAVYYCNAYYPIRSSPYGYYYWGQGTQVTVSS | high polyreactivity
14 | QVQHVESGGGLVQAGGSLRLSCAASGSIFLIYAMGWYRPAPGKERELVAAITGGGTTNYADSVKGRFTISRDNAKHTVYFQMNSLKPEDTAVYYCNTLYLVYLYWTSPTPSDLFDYWGQGTQVTVSS | low polyreactivity
15 | QVQHVESGGGLVQAGGSLRLSCAASGSIFNYYAMGWYRQAPGKERELVAAISKTGGSTYYADSVKGRFTISRDNAKNTVYLQMNSLKPEDTAVYYCNAVYASVSPTPYGYWGQGTQVTVSS | high polyreactivity
16 | QVQHVESGGGLVQAGGSLRLSCAASGSIFSFNAMGWYRQAPGKERELVASISRNGGSTYYADSVKGRFTISRDNAKNTVYLQMNSLKPEDTAVYYCAVKVRNRRYGYWGQGTQVTVSS | high polyreactivity

Row | Sequence | polyreactivity (PSR sort gate)
17 | QVQHVESGGGLVQAGGSLRLSCAASGSIFSIYAMGWYRQAPGKEREFVASITVTDGSTYYADSVKGRFTISRDNAKNTVYLQMNSLKPEDTAVYYCFAVDWYGSGSSYRGSVTYWGQGTQVTVSS | low polyreactivity
18 | QVQHVESGGGLVQAGGSLRLSCAASGSIFTSYAMGWSSQAPGKERELVAAITSTGGSTYYADSVKGRFTISRDNAKNTVYLQMNSLKPEDTAVYYCNADGGTPYDYWGQGTQVTVSS | low polyreactivity
19 | QVQHVESGGGLVQAGGSLRLSCAASGSIFYQNAMGWYRQAPGKERELVAAISSAGSTYYADSVKGRFTISRDNAKNTVYLQMNSLKPEDTAVYYCARRSSGELGYHIYDYWGQGTQVTVSS | low polyreactivity
20 | QVQHVESGGGLVQAGGSLRLSCAASGSIINNYAMGWYRQPPGKERELVADSTYYADSVKGRFTISRDNAKNTVYLQMNSLKPEVTAVYYCAPDDGGGDPEFYWGQGSQVTVSS | high polyreactivity
21 | QVQHVESGGGLVQAGGSLRLSCAASGSIISSYAMGRYRQAPGKERELVASISRRGGSTYYADSVKGRFTISRDNAKNTVSLQMNSLKPEDTAVYYCYPSCGPYRYYYCGQGTQVTVSS | low polyreactivity
22 | QVQHVESGGGLVQAGGSLRLSCAASGSIIVRYAMGWYRQAPGKERELVASISKRGGSTYYADSVKGRFTISRDNAKNTVYLQMKSLKPDDTAVYYCAAVGYYLVKFDYWGQGTQVTVSS | high polyreactivity
23 | QVQHVESGGGLVQAGGSLRLSCAASGSILDGNTMGWYRQSPGKARELVAALTWDCTSTYYADSVKGRFTISRDNAKNSVYLQMNSLKPEDTAVYYCAATKGYSDPSTLYYAYIHYDYWGQGTQVTVSW | low polyreactivity
24 | QVQHVESGGGLVQAGGSLRLSCAASGSINSNAMGWYRQARGKERELVAAISGSGSTTYYADSVKGRFTISRDNAKNTVYLKMNSLKPEDTAVYYCARGVYGRGRTERYYWGQGTQVIVSS | high polyreactivity
25 | QVQHVESGGGLVQAGGSLRLSCAASGSISKINAMGWYRQAPGKERELVAAINTGDSTYYADSVKGRFTISRDNAKNSVYLQMNSLKPEDSAVYYCAAEGSPTGYDYWGQGTQVTVSS | low polyreactivity
26 | QVQHVESGGGLVQAGGSLRLSCAASGSIYYLNAMGWYRQGPGKEWELVAAINRGGSTSYADSVKGRFTISRDNAKNTVYLQMNSLKEADTAVYYCAADHGGVQYSVRYDYWGQGTQLTVSS | low polyreactivity
27 | QVQHVESGGGLVQAGGSLRLSCAASGSTFANNAMGWYRQAPGKERELVASITTDGSTNYADSVKGRFTISRDNAKNPVYLQMNSLKPEDSAVYYCAADYHTPSSFAPIELYDYCGQGTQVTVSS | low polyreactivity
28 | QVQHVESGGGLVQAGGSLRLSCAASGSTFFKYDMGWYRPAPGTERELVAVITWSGGTTFYADSVKGRFTISRDNANNTVYLQMNSLKPEDTAVSYCAADYYGYRYDYWGQGTQVTVSS | low polyreactivity
29 | QVQHVESGGGLVQAGGSLRLSCAASGSTFGGYTMGWSRQAPGTERELVASIRSGGSTYYADSVKGRFTISRDNAKNTVYLQMNSLKPEVTAVYYCAADGRRDRDYWGQGTQVTVSS | high polyreactivity
30 | QVQHVESGGGLVQAGGSLRLSCAASGSTFKYYAMGWSRQAPGKERELVAAISLSGGRTSYADSVKGRFTISRDNAKNTVYLQMNSLKPVDTAVYYCAAASYFPRFNYWGQGTQVTVSS | high polyreactivity
31 | QVQHVESGGGLVQAGGSLRLSCAASGSTFQYPYTMGWYRQAPRKARELVAVISRTGGSTFYADSVKGRFTISRDNAKNTVYLQMNSLKPEDTAVYYCNARPRYKYPSYDYWGQGTQLTVSS | high polyreactivity
32 | QVQHVESGGGLVQAGGSLRLSCAASGSTFRYYTMGWYRQAPGKERELVAAISGSGGITYYADSVKGRFTISRDNAKNTVYLQMNSLKPEDTAVYYCNAGVFYRDDYWGQGTEVTVSS | high polyreactivity

— the nanobody polyreactivity screen of Harvey et al. (2022)
